Experimental findings from the supplement of paper PMC9170038 are described below.

The subject of this data set is MS2 coat protein. As to the kind of experiment: apparent KD of MS2 coat protein; designed switch direction (-1 OFF switch, 1 ON switch): -1; higher = weaker reporter binding. An outline of the steps: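 Three titration conditions were used: no input, 200 uM small-molecule ligand, and an oligonucleotide input. In each, SNAP-549-labelled MS2 coat protein was raised from 0.7 or 1.5 nM, doubling, to 3 µM over designed RNA switches transcribed on Illumina chips by stalled E. coli RNA polymerase. Curve fits of normalised cluster fluorescence gave values whose per-design median over clusters is the apparent KD.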

[1] abbreviates: input ligand: microRNA oligo, concentration not stated.
The mark [2] stands for this setting: Eterna round: R95, input ligand: FMN 200 uM.
[3] abbreviates: Eterna round: R95, input ligand: microRNA oligo, concentration not stated.
[4] abbreviates: Eterna round: R95, input ligand: none.

“CGUCUGUCGGAAGGAUAUGUAGGGUGUCUUUUCCUCAGUACGAAGUACAUGAGGAUCACCCAUGUACAGAAGGUCCACAAUUAA [Essosoedso] (Eterna round: R96, puzzle: Exclusion NG 2)”: the “apparent KD of MS2 coat protein” value by setting is: (input ligand: FMN 200 uM) 0.109 µM; under setting [1], 0.0679 µM; (input ligand: none) 0.0753 µM.
With “UCCGUUUGAGGAUAUAUGUAGACAAACAUGAGGAUCACCCAUGUCGGGAUCGAAAUGUCCGUAGAAGGCAAACUGG [Eternabot (L2) Solution 13] (Eterna round: R97, puzzle: Exclusion 5)”, the “apparent KD of MS2 coat protein” value came to 0.0652 µM (input ligand: FMN 200 uM) and 0.0229 µM (input ligand: none).
In the case of “AGUACUGACACGUUGGUGUUAGUACAAUAAGCUUGUGACACAUGAGGAUCACCCAUGUCCUCAUAAGCUCGUCUUAU [salish99_TOv2_r2_094] (Eterna round: R96, puzzle: Sensor v3, turn-off variant 2)”, the “apparent KD of MS2 coat protein” value runs as follows: (input ligand: FMN 200 uM) 0.0229 µM; under setting [1], 0.468 µM; (input ligand: none) 0.0254 µM.
Regarding “AGAGUGCUGCGAGGAUAUACAUGAGGAUCACCCAUGUUUUCGUGUGAGGCAAAGCCUCACACGAUGUAGAAGGCGCAGUACUCA [Mat - Exclusion NG 2 - Mod of JL - D36] (Eterna round: R96, puzzle: Exclusion NG 2)”, the “apparent KD of MS2 coat protein” value was found to be 0.0132 µM (input ligand: FMN 200 uM), 0.00973 µM under setting [1] and 0.0146 µM (input ligand: none).
Take “UCGCUCCGUGUAGGAUAUCGCCGUACUAUGCGGCGAGAAGGACAUGAGGAUCACCCAUGUAUGUUAUUAUCACGCGUGGCGCAA [Design 61] (Eterna round: R96, puzzle: Exclusion NG 1)”: the “apparent KD of MS2 coat protein” value was 0.0179 µM (input ligand: FMN 200 uM), 0.0134 µM under setting [1] and 0.0162 µM (input ligand: none).
Take “CAGCUGUCAGGAUAUCGUGCAUACAACGAAAGUUCUAUGUGCGAGAAGGGACAUGAGGAUCACCCAUGUUUCCG [Omei Ex4 A23] (Eterna round: R97, puzzle: Exclusion 4)”: the “apparent KD of MS2 coat protein” value is, setting by setting: (input ligand: FMN 200 uM) 0.0211 µM; (input ligand: none) 0.0161 µM.
For the sequence “GGAGAGUCAGGAUAUCGAAGGUAGAGAAGAGGAGAGUGGUACGAGAAGGGACAUGAGGAUCACCCAUGUAGGUG [JR_Exclusion4)Sub011] (puzzle: Exclusion 4)”, the “apparent KD of MS2 coat protein” value is, setting by setting: under setting [2], 0.457 µM; under setting [3], 0.645 µM; under setting [4], 0.452 µM.
Take “AAAGGCUAAGGAUAUGCACACAUAAACAUGAGGAUCACCCAUGUGUUCCCAGCAACCAUAGCAGAAGGUAGCGAAA [Rarebeve] (puzzle: Exclusion 5)”: the “apparent KD of MS2 coat protein” value under setting [2] was 0.0765 µM, the “apparent KD of MS2 coat protein” value under setting [3] came out at 0.0701 µM and the “apparent KD of MS2 coat protein” value under setting [4] worked out at 0.0687 µM.
“AUAAAGCAAGCAUGGUCCCACAUGAGGAUCACCCAUGUGUUCGUCUUAUAGGCUGCUGAGGCUUUUGCCUCGGUGGC [LRO Sensor-off var1-07 loose mod of D91 from Mat747] (Eterna round: R97, puzzle: Sensor, turn-off variant 1)”: the “apparent KD of MS2 coat protein” value (input ligand: FMN 200 uM) was 0.155 µM and the “apparent KD of MS2 coat protein” value (input ligand: none) is 0.179 µM.
Taken in the same sequence, the figures for “CCAGGAAGGCAGGAUAUCCAAAGCCGUCCCGGCGGAGAAGGGCUGACUUGAGGAUCACCCAAGUGAUGCCUAAC [Aratquve] (Eterna round: R97, puzzle: Exclusion 6)” were 0.0152 µM and 0.0148 µM.
Take “AUAAAUCAUGUAGGAUAUGCGUGGCAAAGCUAUGCAGAAGGACAUGAGGAUCACCCAUGUGCUUCCGUCUGAGAACAGACGGUA [Mat - Exclusion NG 1 - Mod of JL - D24] (Eterna round: R96, puzzle: Exclusion NG 1)”: the “apparent KD of MS2 coat protein” value is 0.13 µM (input ligand: FMN 200 uM), 0.0616 µM under setting [1] and 0.0823 µM (input ligand: none).
For “AUAUAGCGAGGAUAUACAUGAGGAUCACCCAUGUGGUAGUAGAUACGGUAGAGAUAGUGUAGAAGGCGCUAUGA [EX3 #9] (Eterna round: R97, puzzle: Exclusion 3)”, the “apparent KD of MS2 coat protein” value by setting is: (input ligand: FMN 200 uM) 0.226 µM; (input ligand: none) 0.233 µM.
As to “GGGCCCGGAGGAUAUACAAUGGGCCCGGGAAACCGGGUUUUACAUGAGGAUCACCCAUGUAGAAGGCCGGGCCC [-42.8, -38.99 kcal A 24%, 5a,0] (Eterna round: R97, puzzle: Exclusion 2)”, the “apparent KD of MS2 coat protein” value stood at 0.0156 µM (input ligand: FMN 200 uM) and 0.0146 µM (input ligand: none).
On to “UCGUUCCGUGUAGGAUAUUGGCCUUCCUCGGGCCGAGAAGGACAUGAGGAUCACCCAUGUAUGCUAUUAUCGCGCGUGGCGCAC [Design 96] (Eterna round: R96, puzzle: Exclusion NG 1)”, for which the “apparent KD of MS2 coat protein” value is, setting by setting: (input ligand: FMN 200 uM) 0.141 µM; under setting [1], 0.0245 µM; (input ligand: none) 0.033 µM.
Take “UUUAAUUUUUUUUUUUUACAAGCUUUUUGCUCGUCUUAUACAUGAGGAUCACCCAUGUAGGUGGGAGGUAAAUUAUC [JMF 79] (puzzle: Sensor v3, turn-off variant 2)”: the “apparent KD of MS2 coat protein” value under setting [2] is 0.0408 µM, the “apparent KD of MS2 coat protein” value under setting [3] stood at 0.116 µM and the “apparent KD of MS2 coat protein” value under setting [4] was found to be 0.0438 µM.
Turning to “UUUUAACAAGCGAGAUCCUACAUGAGGAUCACCCAUGUAUGUCAUGGUUUCCAUGGUCUUUUUGCUCGUCUUGUGUG [jl TITIN mod 7] (Eterna round: R97, puzzle: Sensor, turn-off variant 1)”, the “apparent KD of MS2 coat protein” value (input ligand: FMN 200 uM) amounted to 0.0409 µM and the “apparent KD of MS2 coat protein” value (input ligand: none) amounted to 0.0441 µM.
For “GAUUAGUGAGGAUAUGGUAAAGAUAAGAUGAUGAAAGAACUCCAGAAGGCACAUGAGGAUCACCCAUGUAGUAG [Mat - Exclusion 4 - Mod of JL - D21] (puzzle: Exclusion 4)”, the “apparent KD of MS2 coat protein” value runs as follows: under setting [2], 0.0171 µM; under setting [3], 0.0204 µM; under setting [4], 0.0201 µM.
Consider “CUUUUUUUUGUGAGGAUAUACUGUUAUUAAAGUUAGUAGAAGGUACAUGAGGAUCACCCAUGUUAAUUACUCUA [JR_BME4_Sub049] (puzzle: Brourd's mod of Exclusion 4)”, for which the “apparent KD of MS2 coat protein” value under setting [3] is 0.0142 µM.
In the case of “AGCAUGCUAGGAUAUACGGGACAUUAGGGUUCGUUGUAUGGACAUGAGGAUCACCCAUGUAGAAGGAGCGUGCA [Mat - Exclusion 2 - Mod of Hyphema - D94] (puzzle: Exclusion 2)”, under setting [3], the “apparent KD of MS2 coat protein” value turned out to be 0.0235 µM.
On to “CCCAUGUCAGGAUAUCUAAGAGAGGAUCAGCCCUCUCCUCCGGAGAAGGGACAUGAGGAUCACCCAUGUAAAAC [Zasorequ] (puzzle: Exclusion 4)”, for which the “apparent KD of MS2 coat protein” value was 0.0305 µM under setting [2], 0.145 µM under setting [3] and 0.204 µM under setting [4].
As to “CCCGUGUUAGGAUAUACGGCACACCCGCCAGCGGGUAUAUAGUAGAAGGAACAUGAGGAUCACCCAUGUAUAGC [Sobiza] (puzzle: Exclusion 4)”, the “apparent KD of MS2 coat protein” value under setting [3] was 0.0156 µM.
For “GAUUAGGUAGGAUAUACGUAGUGAGCCAGCGAGAGCUGGUAACAUGAGGAUCACCCAUGUAGAAGGACCAUUAA [Xeorqulaus] (Eterna round: R97, puzzle: Exclusion 2)”, the “apparent KD of MS2 coat protein” value by setting is: (input ligand: FMN 200 uM) 0.145 µM; (input ligand: none) 0.0724 µM.
Consider “GUCAUGUUAGGAUAUCUGGCAUGUGACUUCGGUCACUGUCCAGAGAAGGAACAUGAGGAUCACCCAUGUUGGAC [Ex4-3: 54] (puzzle: Exclusion 4)”, for which, under setting [3], the “apparent KD of MS2 coat protein” value was determined as 0.0482 µM.
